Measurements reported in publication PMC9482650, “Quantitative fragmentomics allow affinity mapping of interactomes” (Nature Communications, 2022).

Key:
Assay in all cases: holdup assay
Set-up in all cases: key: below the threshold = too weak to quantify, mostly under pKd 3.1 to 4
APBA3_1, O96018 = target: T1, APBA3_1, O96018
T1 sequence (O96018 389-490, limits assumed, looked up): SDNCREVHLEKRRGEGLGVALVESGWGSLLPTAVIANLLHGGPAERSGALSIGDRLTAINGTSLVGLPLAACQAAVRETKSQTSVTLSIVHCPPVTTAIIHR

DFNB31_1, Q9P202 = target: T2, DFNB31_1, Q9P202
T2 sequence (Q9P202 135-233, limits assumed, looked up): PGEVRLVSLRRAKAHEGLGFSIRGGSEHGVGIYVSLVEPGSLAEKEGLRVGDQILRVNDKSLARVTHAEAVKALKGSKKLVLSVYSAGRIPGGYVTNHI

DFNB31_3, Q9P202 = target: T3, DFNB31_3, Q9P202
T3 sequence (Q9P202 811-907, limits assumed, looked up): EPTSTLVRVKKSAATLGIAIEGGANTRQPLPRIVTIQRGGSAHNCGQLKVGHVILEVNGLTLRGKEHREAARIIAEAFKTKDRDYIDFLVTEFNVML

DLG3_2, Q92796 = target: T4, DLG3_2, Q92796
T4 sequence (Q92796 221-321, limits assumed, looked up): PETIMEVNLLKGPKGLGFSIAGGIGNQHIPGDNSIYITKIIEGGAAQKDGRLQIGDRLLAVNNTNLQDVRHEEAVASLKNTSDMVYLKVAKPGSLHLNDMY

DLG5_1, Q8TDM6 = target: DLG5_1, Q8TDM6
DLG5_1, Q8TDM6, sequence (Q8TDM6 617-713): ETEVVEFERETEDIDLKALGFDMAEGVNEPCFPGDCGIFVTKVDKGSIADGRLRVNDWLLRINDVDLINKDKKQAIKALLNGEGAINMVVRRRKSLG

FRMPD3, Q5JV73 = target: FRMPD3, Q5JV73
FRMPD3, Q5JV73, sequence (Q5JV73 12-100): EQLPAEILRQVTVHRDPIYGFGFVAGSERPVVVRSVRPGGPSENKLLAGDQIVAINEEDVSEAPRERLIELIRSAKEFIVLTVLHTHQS

GORASP2, Q9H8Y8 = target: GORASP2, Q9H8Y8
GRASP, Q7Z6J2 = target: GRASP, Q7Z6J2
GRASP, Q7Z6J2, sequence (Q7Z6J2 96-193): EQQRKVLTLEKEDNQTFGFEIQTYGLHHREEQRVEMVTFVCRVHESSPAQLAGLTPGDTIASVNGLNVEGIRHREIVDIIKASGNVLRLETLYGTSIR

GRID2IP_2, A4D2P6 = target: GRID2IP_2, A4D2P6
GRID2IP_2, A4D2P6, sequence (A4D2P6 272-370): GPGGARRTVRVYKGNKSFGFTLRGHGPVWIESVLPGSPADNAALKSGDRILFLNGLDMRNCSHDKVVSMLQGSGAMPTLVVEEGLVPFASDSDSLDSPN

GRIP1_4, Q9Y3R0 = target: T5, GRIP1_4, Q9Y3R0
T5 sequence (Q9Y3R0 467-571, limits assumed, looked up): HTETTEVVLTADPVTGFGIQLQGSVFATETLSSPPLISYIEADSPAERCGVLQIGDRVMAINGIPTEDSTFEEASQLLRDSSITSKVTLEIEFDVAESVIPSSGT

GRIP2_4, Q9C0E4 = target: GRIP2_4, Q9C0E4
GRIP2_4, Q9C0E4, sequence (Q9C0E4 446-548): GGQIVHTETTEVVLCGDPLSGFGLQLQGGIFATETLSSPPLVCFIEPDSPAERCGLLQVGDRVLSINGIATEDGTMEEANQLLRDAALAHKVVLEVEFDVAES

GRIP2_6, Q9C0E4 = target: GRIP2_6, Q9C0E4
GRIP2_6, Q9C0E4, sequence (Q9C0E4 648-740): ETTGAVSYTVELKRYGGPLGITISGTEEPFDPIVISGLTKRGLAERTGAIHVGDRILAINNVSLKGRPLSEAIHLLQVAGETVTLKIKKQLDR

HTRA3, P83110 = target: T6, HTRA3, P83110
T6 sequence (P83110 354-453, limits assumed, looked up): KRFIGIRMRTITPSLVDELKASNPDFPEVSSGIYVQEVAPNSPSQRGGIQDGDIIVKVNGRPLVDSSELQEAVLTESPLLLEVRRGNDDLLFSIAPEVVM

IL16_3, Q14005 = target: IL16_3, Q14005
IL16_3, Q14005, sequence (Q14005 1107-1207): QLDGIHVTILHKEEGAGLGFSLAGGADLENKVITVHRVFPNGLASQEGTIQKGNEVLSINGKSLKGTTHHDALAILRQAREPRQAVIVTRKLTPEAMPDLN

IL16_4, Q14005 = target: IL16_4, Q14005
IL16_4, Q14005, sequence (Q14005 1229-1329): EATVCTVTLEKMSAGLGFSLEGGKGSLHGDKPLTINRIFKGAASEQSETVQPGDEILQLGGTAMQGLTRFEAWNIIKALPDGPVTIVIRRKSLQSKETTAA

Inadl_9, Q8NI35 = target: Inadl_9, Q8NI35
Inadl_9, Q8NI35, sequence (Q8NI35 1530-1615): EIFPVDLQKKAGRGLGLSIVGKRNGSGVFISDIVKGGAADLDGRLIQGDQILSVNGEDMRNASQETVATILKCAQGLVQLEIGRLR

LNX1_2, Q8TBB1 = target: LNX1_2, Q8TBB1
LNX1_2, Q8TBB1, sequence (Q8TBB1 371-470): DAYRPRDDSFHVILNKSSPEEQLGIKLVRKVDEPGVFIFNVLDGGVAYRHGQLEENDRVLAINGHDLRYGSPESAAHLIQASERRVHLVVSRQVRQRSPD

MAGI2_2, Q86UL8 = target: MAGI2_2, Q86UL8
MAGI2_2, Q86UL8, sequence (Q86UL8 410-522): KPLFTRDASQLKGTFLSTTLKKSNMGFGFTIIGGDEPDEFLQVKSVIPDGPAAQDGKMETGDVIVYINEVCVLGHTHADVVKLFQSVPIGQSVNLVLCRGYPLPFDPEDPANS

MPDZ_12, O75970 = target: T7, MPDZ_12, O75970
T7 sequence (O75970 1857-1958, limits assumed, looked up): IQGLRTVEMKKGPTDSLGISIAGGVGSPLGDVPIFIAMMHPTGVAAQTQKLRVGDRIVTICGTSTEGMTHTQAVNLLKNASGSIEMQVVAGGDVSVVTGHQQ

MPP2, Q14168 = target: T8, MPP2, Q14168
T8 sequence (Q14168 180-250, limits assumed, looked up): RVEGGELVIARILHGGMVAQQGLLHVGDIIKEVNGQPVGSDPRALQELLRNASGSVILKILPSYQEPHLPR

NOS1, P29475 = target: NOS1, P29475
NOS1, P29475, sequence (P29475 9-101): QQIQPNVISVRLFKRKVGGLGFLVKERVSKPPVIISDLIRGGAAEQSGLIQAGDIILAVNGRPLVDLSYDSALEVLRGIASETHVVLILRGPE

PDZRN3_1, Q9UPQ7 = target: T9, PDZRN3_1, Q9UPQ7
T9 sequence (Q9UPQ7 244-349, limits assumed, looked up): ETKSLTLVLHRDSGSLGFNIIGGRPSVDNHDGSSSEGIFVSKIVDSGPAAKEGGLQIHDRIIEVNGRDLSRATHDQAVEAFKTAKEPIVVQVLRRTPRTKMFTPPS

PICK1, Q9NRD5 = target: PICK1, Q9NRD5
PICK1, Q9NRD5, sequence (Q9NRD5 17-115): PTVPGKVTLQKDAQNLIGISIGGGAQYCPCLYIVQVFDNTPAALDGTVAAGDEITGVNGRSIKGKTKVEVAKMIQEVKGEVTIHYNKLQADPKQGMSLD

RADIL, Q96JH8 = target: T10, RADIL, Q96JH8
T10 sequence (Q96JH8 971-1071, limits assumed, looked up): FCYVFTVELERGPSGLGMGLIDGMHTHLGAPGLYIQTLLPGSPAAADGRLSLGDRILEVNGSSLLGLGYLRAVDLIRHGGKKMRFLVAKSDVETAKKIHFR

TIAM2, Q8IVF5 = target: T11, TIAM2, Q8IVF5
T11 sequence (Q8IVF5 885-986, limits assumed, looked up): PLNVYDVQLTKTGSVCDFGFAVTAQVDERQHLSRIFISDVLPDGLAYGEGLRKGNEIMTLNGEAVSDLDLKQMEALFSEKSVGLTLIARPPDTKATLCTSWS

TJP1_3, Q07157 = target: TJP1_3, Q07157
TJP1_3, Q07157, sequence (Q07157 416-512): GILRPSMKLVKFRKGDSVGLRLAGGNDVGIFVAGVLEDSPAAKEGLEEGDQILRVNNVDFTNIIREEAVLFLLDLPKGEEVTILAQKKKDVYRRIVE

[1] = plain residues with an end cap or a label only (N-terminal biotin on a linker: ado-ado)
[2] = plain residues with an end cap or a label only (N-terminal biotin on a linker: ttds)

B1: PRKCA, P17252 (peptide)
chain: FVHPILQSAV
APBA3_1, O96018; [1]
  pKd: below the threshold
DFNB31_1, Q9P202; [1]
  pKd: 4.29
DFNB31_3, Q9P202; [1]
  pKd: 3.57
DLG3_2, Q92796; [1]
  pKd: 4.26
DLG5_1, Q8TDM6; [1]
  pKd: below the threshold
FRMPD3, Q5JV73; [1]
  pKd: below the threshold
GORASP2, Q9H8Y8; [1]
  pKd: below the threshold
GRASP, Q7Z6J2; [1]
  pKd: 5.13
GRID2IP_2, A4D2P6; [1]
  pKd: 4.36
GRIP1_4, Q9Y3R0; [1]
  pKd: below the threshold
GRIP2_4, Q9C0E4; [1]
  pKd: below the threshold
GRIP2_6, Q9C0E4; [1]
  pKd: below the threshold
HTRA3, P83110; [1]
  pKd: below the threshold
IL16_3, Q14005; [1]
  pKd: below the threshold
IL16_4, Q14005; [1]
  pKd: below the threshold
Inadl_9, Q8NI35; [1]
  pKd: below the threshold
LNX1_2, Q8TBB1; [1]
  pKd: below the threshold
MAGI2_2, Q86UL8; [1]
  pKd: 3.9
MPDZ_12, O75970; [1]
  pKd: below the threshold
MPP2, Q14168; [1]
  pKd: below the threshold
NOS1, P29475; [1]
  pKd: 3.57
PDZRN3_1, Q9UPQ7; [1]
  pKd: 4.21
PICK1, Q9NRD5; [1]
  pKd: below the threshold
RADIL, Q96JH8; [1]
  pKd: 3.57
TIAM2, Q8IVF5; [1]
  pKd: below the threshold
TJP1_3, Q07157; [1]
  pKd: below the threshold

B2: ABRAXAS2, Q15018 (peptide)
chain: DPRNTQTSQI
APBA3_1, O96018; [2]
  pKd: below the threshold
DFNB31_1, Q9P202; [2]
  pKd: 4.06
DFNB31_3, Q9P202; [2]
  pKd: 3.67
DLG3_2, Q92796; [2]
  pKd: 3.81
DLG5_1, Q8TDM6; [2]
  pKd: below the threshold
FRMPD3, Q5JV73; [2]
  pKd: below the threshold
GORASP2, Q9H8Y8; [2]
  pKd: below the threshold
GRASP, Q7Z6J2; [2]
  pKd: 3.95
GRID2IP_2, A4D2P6; [2]
  pKd: 4.24
GRIP1_4, Q9Y3R0; [2]
  pKd: below the threshold
GRIP2_4, Q9C0E4; [2]
  pKd: below the threshold
GRIP2_6, Q9C0E4; [2]
  pKd: below the threshold
HTRA3, P83110; [2]
  pKd: below the threshold
IL16_3, Q14005; [2]
  pKd: below the threshold
IL16_4, Q14005; [2]
  pKd: 3.66
Inadl_9, Q8NI35; [2]
  pKd: below the threshold
LNX1_2, Q8TBB1; [2]
  pKd: below the threshold
MAGI2_2, Q86UL8; [2]
  pKd: 3.59
MPDZ_12, O75970; [2]
  pKd: below the threshold
MPP2, Q14168; [2]
  pKd: below the threshold
NOS1, P29475; [2]
  pKd: 3.52
PDZRN3_1, Q9UPQ7; [2]
  pKd: 3.54
PICK1, Q9NRD5; [2]
  pKd: below the threshold
RADIL, Q96JH8; [2]
  pKd: below the threshold
TIAM2, Q8IVF5; [2]
  pKd: below the threshold
TJP1_3, Q07157; [2]
  pKd: below the threshold

B3: AGMAT, Q9BSE5 (peptide)
chain: LCALPKVTTV
APBA3_1, O96018; [2]
  pKd: below the threshold
DFNB31_1, Q9P202; [2]
  pKd: below the threshold
DFNB31_3, Q9P202; [2]
  pKd: 3.69
DLG3_2, Q92796; [2]
  pKd: 5.31
DLG5_1, Q8TDM6; [2]
  pKd: below the threshold
FRMPD3, Q5JV73; [2]
  pKd: below the threshold
GORASP2, Q9H8Y8; [2]
  pKd: 5.18
GRASP, Q7Z6J2; [2]
  pKd: 4.47
GRID2IP_2, A4D2P6; [2]
  pKd: 4.01
GRIP1_4, Q9Y3R0; [2]
  pKd: below the threshold
GRIP2_4, Q9C0E4; [2]
  pKd: below the threshold
GRIP2_6, Q9C0E4; [2]
  pKd: below the threshold
HTRA3, P83110; [2]
  pKd: 3.71
IL16_3, Q14005; [2]
  pKd: below the threshold
IL16_4, Q14005; [2]
  pKd: below the threshold
Inadl_9, Q8NI35; [2]
  pKd: 3.52
LNX1_2, Q8TBB1; [2]
  pKd: 4.42
MAGI2_2, Q86UL8; [2]
  pKd: 4.18
MPDZ_12, O75970; [2]
  pKd: below the threshold
MPP2, Q14168; [2]
  pKd: below the threshold
NOS1, P29475; [2]
  pKd: 3.7
PDZRN3_1, Q9UPQ7; [2]
  pKd: below the threshold
PICK1, Q9NRD5; [2]
  pKd: below the threshold
RADIL, Q96JH8; [2]
  pKd: 4.59
TIAM2, Q8IVF5; [2]
  pKd: below the threshold
TJP1_3, Q07157; [2]
  pKd: below the threshold

B4: SLC23A1, Q9UHI7 (peptide)
chain: TETASVCTKV
APBA3_1, O96018; [1]
  pKd: below the threshold
DFNB31_1, Q9P202; [1]
  pKd: 4.18
DFNB31_3, Q9P202; [1]
  pKd: below the threshold
DLG3_2, Q92796; [1]
  pKd: 4.02
DLG5_1, Q8TDM6; [1]
  pKd: below the threshold
FRMPD3, Q5JV73; [1]
  pKd: below the threshold
GORASP2, Q9H8Y8; [1]
  pKd: 4.17
GRASP, Q7Z6J2; [1]
  pKd: 4.43
GRID2IP_2, A4D2P6; [1]
  pKd: 3.98
GRIP1_4, Q9Y3R0; [1]
  pKd: below the threshold
GRIP2_4, Q9C0E4; [1]
  pKd: below the threshold
GRIP2_6, Q9C0E4; [1]
  pKd: below the threshold
HTRA3, P83110; [1]
  pKd: below the threshold
IL16_3, Q14005; [1]
  pKd: below the threshold
IL16_4, Q14005; [1]
  pKd: 3.55
Inadl_9, Q8NI35; [1]
  pKd: below the threshold
LNX1_2, Q8TBB1; [1]
  pKd: below the threshold
MAGI2_2, Q86UL8; [1]
  pKd: 3.48
MPDZ_12, O75970; [1]
  pKd: 3.82
MPP2, Q14168; [1]
  pKd: below the threshold
NOS1, P29475; [1]
  pKd: 3.62
PDZRN3_1, Q9UPQ7; [1]
  pKd: 3.53
PICK1, Q9NRD5; [1]
  pKd: 4.24
RADIL, Q96JH8; [1]
  pKd: 3.96
TIAM2, Q8IVF5; [1]
  pKd: below the threshold
TJP1_3, Q07157; [1]
  pKd: below the threshold
